Assay results as given in patent publication US20190375786A1, “STABLE PEPTIDES AND METHODS OF USE THEREOF” (Fred Hutchinson Cancer Research Center, priority 2016, published 2019).
No end group written: not given here.

Legend:
[1] = Resistance to elevated temperature, HPLC; format: physicochemical; details: for Resistance to Temperature (75° C.): 75° C. for one hour; for Resistance to Temperature (75° C.) / Resistance to Temperature (100° C.): HPLC peak vs untreated peptide; for Resistance to Temperature (100° C.): 100° C. for one hour
Method in brief: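 Peptides were incubated at room temperature, 70° C or 100° C for one hour in ddH2O; another protocol used 70° C, 75° C or 100° C for one hour in 0.5 mM PBS, then pelleting and analysis of the supernatant. Remaining peptide was measured by C-18 RP-HPLC, 5–45% acetonitrile/0.1% TFA over 10 min.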

[2] = Resistance to reduction by DTT, RP-HPLC; format: physicochemical; details: for Resistance to DTT Reduction (10 mM): 10 mM DTT in PBS, room temperature, 30 minutes, HPLC peak vs untreated peptide
Method in brief: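 Peptide (12.5 μg from a 2 mg/ml stock, or 0.015 mM final in PBS) was held 30 min at room temperature with or without 10 mM DTT. Reduced and non-reduced forms were compared by C-18 RP-HPLC using a 5–45% acetonitrile/0.1% TFA gradient over 10 min, with detection at 214 and 280 nm.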

[3] = target: trypsin (Sus scrofa, UniProt P00761); experiment: Trypsin digestion resistance of soluble peptide, RP-HPLC; format: in vitro ADME, porcine; parameters: purchased Sigma Aldrich 6567; details: 500 U/ml trypsin, 30 minutes at 37.5° C.; HPLC peak vs untreated peptide
Sequence of trypsin (P00761 9-231): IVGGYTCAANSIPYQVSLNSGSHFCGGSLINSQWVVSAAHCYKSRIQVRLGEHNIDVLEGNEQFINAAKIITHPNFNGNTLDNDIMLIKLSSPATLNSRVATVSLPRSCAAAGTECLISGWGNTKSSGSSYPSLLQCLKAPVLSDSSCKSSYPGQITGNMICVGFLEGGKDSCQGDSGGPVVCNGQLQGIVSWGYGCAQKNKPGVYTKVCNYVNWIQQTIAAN
Method in brief: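 12.5 μg soluble peptide digested with 500 U/ml porcine trypsin in PBS, 30 min at 37.5° C; quenched with soybean trypsin inhibitor, with or without 10 mM DTT reduction afterwards. Intact peptide assessed by C-18 RP-HPLC, 5-45% acetonitrile/0.1% TFA gradient over 10 min.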

[4] = target: pepsin (Sus scrofa, UniProt P00791); experiment: Pepsin digestion resistance in simulated gastric fluid, RP-HPLC; format: in vitro ADME, porcine; parameters: purchased Sigma Aldrich P7012; details: 500 U/ml pepsin in SGF pH 1.05, 30 minutes at 37.5° C.; HPLC peak vs untreated peptide
Sequence of pepsin (P00791 60-385): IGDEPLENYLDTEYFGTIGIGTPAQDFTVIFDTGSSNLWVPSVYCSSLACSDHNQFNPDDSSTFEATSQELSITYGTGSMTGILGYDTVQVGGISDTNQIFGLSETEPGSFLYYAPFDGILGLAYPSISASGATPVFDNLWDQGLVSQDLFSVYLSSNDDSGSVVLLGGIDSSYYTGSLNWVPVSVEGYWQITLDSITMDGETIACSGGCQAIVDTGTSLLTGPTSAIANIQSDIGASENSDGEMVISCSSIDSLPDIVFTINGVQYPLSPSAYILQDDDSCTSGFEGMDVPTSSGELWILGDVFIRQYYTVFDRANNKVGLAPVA
Method in brief: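 Peptide (12.5 μg) incubated 30 min at 37.5 °C with or without 500 U/ml pepsin in simulated gastric fluid (pH 1.05; 2% NaCl in 0.7% HCl); some reactions quenched with 100 mM Tris and 10 mM DTT. Intact peptide followed by C-18 RP-HPLC (5–45% acetonitrile/0.1% TFA over 10 min) at 214 and 280 nm.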

[5] = Combined resistance grouping of hitchin peptides (FIG. 27, from Table 2 data); format: physicochemical; details: FIG. 27 grouping of hitchin peptides
Description: As shown by the data in TABLE 2, the tested peptides of the present disclosure show a range of resistance to proteases, reduction, and high temperature. The peptides were classified as high, medium, or low for each condition. […] For example, after a peptide is treated at 100° C., if the HPLC peak of the peptide is mostly absent as compared to HPLC peak of the peptide not treated at 100° C., then the peptide is classified as low or having low resistance to 100° C. After a peptide is treated with reducing conditions, if there is no or very minimal HPLC peak that overlaps with the HPLC peak of the peptide not treated with reducing conditions, then the peptide is classified as low or having low resistance to reducing conditions.
The peptides with the highest resistance data were further analyzed. […] The six peptides that were further tested were peptides comprising the sequences of SEQ ID NO: 27, SEQ ID NO: 24, SEQ ID NO: 6, SEQ ID NO: 10, SEQ ID NO: 12, and SEQ ID NO: 57, which were all hitchins. […] FIG. 27C is a sequence analysis of SEQ ID NO: 27, SEQ ID NO: 24, SEQ ID NO: 6, SEQ ID NO: 10, SEQ ID NO: 12, and SEQ ID NO: 57 from FIG. 27B. FIG. 27C identifies which amino acids are present at each position in SEQ ID NO: 27, SEQ ID NO: 24, SEQ ID NO: 6, SEQ ID NO: 10, SEQ ID NO: 12, and SEQ ID NO: 57. For example, at position one, all peptide sequences comprise a G amino acid residue; at position two, all peptide sequences comprise an S amino acid residue; at position three, all peptide sequences comprise either G, Q, or V amino acid, or null; and at position four, all peptide sequences comprise V, R, or K amino acid, or null. […] SEQ ID NO: 167 and SEQ ID NO: 168 describe sequences of peptides that are particularly resistant to reduction, pepsin, 75° C., and 100° C., which would typically degrade peptides. […] Additionally, SEQ ID NO: 169 describes sequences of peptides that are also particularly resistant to trypsin.

[6] = Intravenous and oral administration of 14C-radiolabeled peptide to mice; plasma, urine, feces by liquid scintillation counting and HPLC; format: in vivo, female Harlan athymic nude mice; details: mouse
Description: This example describes oral and intravenous administration of peptides of this disclosure. […] A peptide of SEQ ID NO: 27 was radiolabeled by the methods described in EXAMPLE 4, and was then administered intravenously or orally to female Harlan athymic nude mice, 6-8 weeks of age. Radiolabeled peptides of SEQ ID NO: 27 (SEQ ID NO: 27-r) was administered intravenously (IV) at a dose of 4.8 μCi/20 nmol. SEQ ID NO: 27-r was administered orally (PO) by oral gavage at a dose of 24 μCi/100 nmol. Mice were euthanized at various time points by CO2 asphyxiation and biological fluids were collected, including blood, urine, and feces. Samples were analyzed by RP-HPLC and liquid scintillation counting to quantify the concentration or dose of radioactivity and/or intact peptide recovered in plasma, urine, and feces. Urine was collected by abdominal palpitation immediately before CO2 asphyxiation. Blood was collected by cardiac puncture immediately after CO2 asphyxiation and centrifuged to separate plasma. Feces were collected either before or after CO2 asphyxiation by palpitation of the colon. Samples were analyzed by HPLC to quantify the concentration or dose of intact peptide recovered in plasma, urine, and feces. For HPLC analysis, urine samples were first diluted at a 1:20 ratio in water and plasma samples were diluted at a 1:5 ratio in water. Feces samples were dissolved in Tris buffer, centrifuged to remove the insoluble fraction, and supernatants were diluted at a 1:1 ratio in water.

50 (GSLFCKGGSCHFGGCPSHLIKVGSCFGFRSCCKWPWNA) [compound 50]
Resistance to Temperature (75° C.) [1]: High (A peptide classified as high indicates that the majority (at least 75%) of the HPLC peak of the treated peptide is still present as compared to the HPLC peak of the untreated peptide) | Resistance to Temperature (100° C.) [1]: Low (A peptide classified as low indicates that the majority (over 75%) of the HPLC peak of the treated peptide disappeared as compared to the HPLC peak of the untreated peptide) | Resistance to DTT Reduction (10 mM) [2]: Low (A peptide classified as low indicates that the majority (over 75%) of the HPLC peak of the treated peptide disappeared as compared to the HPLC peak of the untreated peptide) | Resistance to Trypsin (500 U/ml) [3]: Low (A peptide classified as low indicates that the majority (over 75%) of the HPLC peak of the treated peptide disappeared as compared to the HPLC peak of the untreated peptide) | Resistance to Pepsin (500 U/ml) [4]: Low (A peptide classified as low indicates that the majority (over 75%) of the HPLC peak of the treated peptide disappeared as compared to the HPLC peak of the untreated peptide)

52 (GSEGDCPISEAIKCVEKCKEKVEVCEPGVCKCSG) [compound 52]
Resistance to Temperature (75° C.) [1]: High (A peptide classified as high indicates that the majority (at least 75%) of the HPLC peak of the treated peptide is still present as compared to the HPLC peak of the untreated peptide) | Resistance to Temperature (100° C.) [1]: High (A peptide classified as high indicates that the majority (at least 75%) of the HPLC peak of the treated peptide is still present as compared to the HPLC peak of the untreated peptide) | Resistance to DTT Reduction (10 mM) [2]: Low (A peptide classified as low indicates that the majority (over 75%) of the HPLC peak of the treated peptide disappeared as compared to the HPLC peak of the untreated peptide) | Resistance to Trypsin (500 U/ml) [3]: Low (A peptide classified as low indicates that the majority (over 75%) of the HPLC peak of the treated peptide disappeared as compared to the HPLC peak of the untreated peptide) | Resistance to Pepsin (500 U/ml) [4]: High (A peptide classified as high indicates that the majority (at least 75%) of the HPLC peak of the treated peptide is still present as compared to the HPLC peak of the untreated peptide)

GSAVCNLKRCQLSCRSLGLLGKCIGDKCECVKHG [SEQ ID NO: 8]
combined resistance to reduction, pepsin and elevated temperatures such as 75° C. and 100° C. [5]: not highly resistant

GSGVPTDVKCRGSPQCIQPCKDAGMRFGKCMNGKCHCTPK [SEQ ID NO: 56]
combined resistance to reduction, pepsin and elevated temperatures such as 75° C. and 100° C. [5]: not highly resistant

GSISIGIKCSPSIDLCEGQCRIRKYFTGYCSGDTCHCSG [SEQ ID NO: 3]
resistance to incubation at 70° C. (in words) ([1]; 70° C. for 1 hour, HPLC): resistant | resistance to incubation at 100° C. (in words) ([1]; 100° C. for 1 hour, HPLC): various degrees of degradation | combined resistance to reduction, pepsin and elevated temperatures such as 75° C. and 100° C. [5]: not highly resistant

GSNFKVEGACSKPCRKYCIDKGARNGKCINGRCHCYY [SEQ ID NO: 5]
resistance to reduction by DTT (in words) ([2]; 10 mM DTT, HPLC vs non-reduced peptide): resistant | combined resistance to reduction, pepsin and elevated temperatures such as 75° C. and 100° C. [5]: not highly resistant

GSQIDTNVKCSGSSKCVKICIDRYNTRGAKCINGRCTCYP [SEQ ID NO: 35]
combined resistance to reduction, pepsin and elevated temperatures such as 75° C. and 100° C. [5]: not highly resistant

GSQKILSNRCNNSSECIPHCIRIFGTRAAKCINRKCYCYP [SEQ ID NO: 6]
combined resistance to reduction, pepsin and elevated temperatures such as 75° C. and 100° C. [5]: highly resistant

GSQVQTNVKCQGGSCASVCRREIGVAAGKCINGKCVCYRN [SEQ ID NO: 30]
combined resistance to reduction, pepsin and elevated temperatures such as 75° C. and 100° C. [5]: not highly resistant

GSQVSTNKKCSNTSQCYKTCEKVVGVAAGKCMNGKCICYP [SEQ ID NO: 18]
combined resistance to reduction, pepsin and elevated temperatures such as 75° C. and 100° C. [5]: not highly resistant

GSRPTDIKCSASYQCFPVCKSRFGKTNGRCVNGLCDCF [SEQ ID NO: 10]
combined resistance to reduction, pepsin and elevated temperatures such as 75° C. and 100° C. [5]: highly resistant

GSVRIPVSCKHSGQCLKPCKDAGMRFGKCMNGKCDCTPK [SEQ ID NO: 24]
combined resistance to reduction, pepsin and elevated temperatures such as 75° C. and 100° C. [5]: highly resistant

GSVVIGQRCYRSPDCYSACKKLVGKATGKCTNGRCDC [SEQ ID NO: 36]
combined resistance to reduction, pepsin and elevated temperatures such as 75° C. and 100° C. [5]: not highly resistant

SEQ ID NO: 27-r: radiolabeled peptide of SEQ ID NO: 27, by reductive methylation with 14C formaldehyde (GSGVPINVKCRGSRDCLDPCKKAGMRFGKCINSKCHCTP; cysteine pairing not given here; also: radiolabeled by reductive methylation with 14C formaldehyde (sites not given here))
radioactivity in urine ([6]; IV 20 nmol and PO 100 nmol): some radioactivity from the administered peptide was detected | time up to which radioactive signal from the dosed peptide was present in plasma ([6]; IV 20 nmol and PO 100 nmol): at least 50 hours | plasma radioactivity as percent of the administered dose ([6]; IV, 20 nmol (4.8 μCi 14C)): ~10% | nature of radioactively detected peptide in plasma (intact vs fragments) ([6]; PO 100 nmol, tandem HPLC and liquid scintillation counting): nearly all of the radioactively detected peptide in plasma was due to fragments | intact peptide in feces ([6]; PO 100 nmol, tandem HPLC and liquid scintillation counting, 3 and 8 hours): detected | plasma radioactivity as percent of the administered dose ([6]; PO by gavage, 100 nmol (24 μCi 14C)): ~1%
